From paper PMC5603589 (2017)

Biological target: GST-AKT1 CA (85 kDa) (UniProt P31749 1-480)
Assay: BLI

GST-AKT1 CA (85 kDa), sequence (P31749 whole entry): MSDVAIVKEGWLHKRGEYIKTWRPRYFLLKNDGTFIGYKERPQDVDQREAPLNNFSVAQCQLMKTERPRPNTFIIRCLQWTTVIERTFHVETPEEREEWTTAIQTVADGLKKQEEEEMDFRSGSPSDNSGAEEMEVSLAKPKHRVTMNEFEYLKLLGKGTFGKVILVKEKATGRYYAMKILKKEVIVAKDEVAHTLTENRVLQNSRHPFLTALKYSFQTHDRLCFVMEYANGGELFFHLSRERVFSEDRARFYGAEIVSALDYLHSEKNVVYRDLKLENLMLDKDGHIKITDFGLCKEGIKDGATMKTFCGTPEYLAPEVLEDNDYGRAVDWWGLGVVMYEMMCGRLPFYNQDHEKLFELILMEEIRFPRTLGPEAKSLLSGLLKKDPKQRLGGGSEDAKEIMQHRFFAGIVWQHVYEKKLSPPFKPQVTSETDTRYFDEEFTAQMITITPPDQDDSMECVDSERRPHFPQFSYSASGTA

B1: GST-PALLD third IgC domain (40 kDa) (domain or fragment)
chain: PFFEMKLKHYKIFEGMPVTFTCRVAGNPKPKIYWFKDGKQISPKSDHYTIQRDLDGTCSLHTTASTLDDDGNYTIMAANPQGRIS
modifications: labelled by biotin
- Kd: 0.0772 nM
